Measured values published in patent publication EP4792821A2 (Beijing Youcare Kechuang Pharmaceutical Technology Co., Ltd., dated 2026).
Residue numbers refer to the chain shown, from its start. *1 amine or outer side, *2 acyl side, *3 side chain or, on linkers, in order; H or OH if unused. Side-chain parts run from the residue outwards. The star is where a group is joined. Succinyl(4-O-cholesteryl) = CC(C)CCC[C@@H](C)[C@H]1CC[C@H]2[C@@H]3CC=C4C[C@@H](OC(=O)CCC(=O)*)CC[C@]4(C)[C@H]3CC[C@]12C; Suc = O=C(CCC(=O)[*:2])[*:1]

B1: Compound 44 (peptide)
peptide: WDEFDKKIEEVNKKIEESLKKIEESDKKLHNVEAAAKK
modifications: N-terminal acetyl (Ac-); C-terminal lysine side chain carries cholesteryl hemisuccinate, K(Chol); C-terminal amide (-NH2)
B2: Compound 13 (peptide)
peptide: WDEFDKKIEEVNKKIEESLKKIEESDKKLEAAAKK
modifications: N-terminal acetyl (Ac-); C-terminal lysine side chain carries cholesteryl hemisuccinate, K(Chol); C-terminal amide (-NH2)
B3: Compound 16 (peptide)
peptide: B2 peptide with W1S
modifications: N-terminal acetyl (Ac-); C-terminal lysine side chain carries cholesteryl hemisuccinate, K(Chol); C-terminal amide (-NH2)
B4: Compound 15 (peptide)
peptide: DEFDKKKIEEVNKKIEESLKKIEESDKKLEEVGSGSGK
modifications: N-terminal acetyl (Ac-); C-terminal lysine side chain carries cholesteryl hemisuccinate, K(Chol); C-terminal amide (-NH2)
B5: Compound 18 (peptide)
peptide: B4 peptide
modifications: N-terminal acetyl (Ac-); C-terminal lysine side chain carries cholesteryl hemisuccinate, K(Chol); C-terminal amide (-NH2)
B6: Compound 45 (peptide)
peptide: WDEFDASISQVNEKINQSLEEIRKSDELLHNEAAAKK
modifications: N-terminal acetyl (Ac-); C-terminal lysine side chain carries cholesteryl hemisuccinate, K(Chol); C-terminal amide (-NH2)
B7: Compound 21 (peptide)
peptide: DEFDKKIEEVNKKIEESLKKIEESDKKLEEVEAAAKK
modifications: N-terminal acetyl (Ac-); C-terminal lysine side chain carries cholesteryl hemisuccinate, K(Chol); C-terminal amide (-NH2)
B8: Compound 25 (peptide)
peptide: YDELVFDASQVNEKINQSLEKIRKSDELLHNVGSGSGK
modifications: N-terminal acetyl (Ac-); C-terminal lysine side chain carries cholesteryl hemisuccinate, K(Chol); C-terminal amide (-NH2)
B9: Compound 27 (peptide)
peptide: WDEFDASISQVNEKINQSLEEIRKSDELLHNVNAGLGSGSGK
modifications: N-terminal acetyl (Ac-); C-terminal lysine side chain carries cholesteryl hemisuccinate, K(Chol); C-terminal amide (-NH2)
B10: Compound 14 (peptide)
peptide: DEFDKKIEEVNKKIEESLKKIEESDKKLEEVNEAAAKK
modifications: N-terminal acetyl (Ac-); C-terminal lysine side chain carries cholesteryl hemisuccinate, K(Chol); C-terminal amide (-NH2)
B11: Compound 20 (peptide)
peptide: SDEFDKKIEEVNKKIEESLKKIEESDKKLGSGSGK
modifications: N-terminal acetyl (Ac-); C-terminal lysine side chain carries cholesteryl hemisuccinate, K(Chol); C-terminal amide (-NH2)
B12: Compound 17 (peptide)
peptide: DEFDKKIEEVNKKIEESLKKIEESDKKLEAAAKK
modifications: N-terminal acetyl (Ac-); C-terminal lysine side chain carries cholesteryl hemisuccinate, K(Chol); C-terminal amide (-NH2)
B13: Compound 50 (peptide)
peptide: SLEQVNEKINQSLAFIRKSDEINQSDEEVNKSDELLEAAAKK
modifications: N-terminal acetyl (Ac-); C-terminal amide (-NH2)
B14: Compound 51 (peptide)
peptide: SDELVNKKIEFDKKINQSLKKIEESDKKKLEAAAKK
modifications: N-terminal acetyl (Ac-); C-terminal amide (-NH2)
B15: Compound 22 (peptide)
peptide: DEFDKKKIEEVNKKIEESLKKIEESDKKLEEVEAAAKK
modifications: N-terminal acetyl (Ac-); C-terminal lysine side chain carries cholesteryl hemisuccinate, K(Chol); C-terminal amide (-NH2)
B16: Compound 26 (peptide)
peptide: FDEEISQVNEKINQSLAFIRKSDELLHNVNAGKSTTEAAAKK
modifications: N-terminal acetyl (Ac-); C-terminal lysine side chain carries cholesteryl hemisuccinate, K(Chol); C-terminal amide (-NH2)
B17: Compound 9 (peptide)
peptide: Ac-WDEFDKKIEEVNKKIEESLKKIEESDKKLEEVNKKLEAAAKK(Succinyl(4-O-cholesteryl))-NH2
B18: Compound 7 (peptide)
peptide: Ac-FDAFIQEINVNEDQSLEQSDELLLELHLLHSLLH-NH2
B19: Compound 6 (peptide)
peptide: Ac-ADAFRLEVNDASSKINESIEESLLSLEKLHNVNATA-NH2
B20: Compound 8 (peptide)
peptide: Ac-FAEFNQKINQVNEKIEESLEEIRKSDEELHNVNATT-NH2

The binders below were run against F protein of hMPV virus strain A2 (human metapneumovirus (hMPV) A2) (assay: cell-based or functional assay).

B1 and B2 are within 1.5-fold of each other in “EC50 (nM), plaque reduction, hMPV A2 on Vero cells” value: 14.6 nM for the first, 11.7 nM for the second.

Going from B3 to B4, the “EC50 (nM), plaque reduction, hMPV A2 on Vero cells” value rises from 7.35 nM to 17.9 nM (2.4-fold).

Compared with B5, B6 is 5.6-fold higher in “EC50 (nM), plaque reduction, hMPV A2 on Vero cells” value: 35.9 nM for the first, 200 nM for the second.

Going from B7 to B8, the “EC50 (nM), plaque reduction, hMPV A2 on Vero cells” value rises from 11.2 nM to 86.4 nM (7.7-fold).

Compared with B9, B10 is 4.1-fold lower in “EC50 (nM), plaque reduction, hMPV A2 on Vero cells” value: 78.3 nM for the first, 18.9 nM for the second.

B11 and B12 are within 1.5-fold of each other in “EC50 (nM), plaque reduction, hMPV A2 on Vero cells” value: 7.47 nM for the first, 8.78 nM for the second.

B13 and B14 are within 1.5-fold of each other in “EC50 (nM), plaque reduction, hMPV A2 on Vero cells” value: 13.3 nM for the first, 18.8 nM for the second.

B15 and B16 are within 1.5-fold of each other in “EC50 (nM), plaque reduction, hMPV A2 on Vero cells” value: 88.4 nM for the first, 103 nM for the second.

Each binder was assayed against F protein of hMPV virus strain B1 (human metapneumovirus (hMPV) B1) (assay: cell-based or functional assay).

B1 and B2 are within 1.5-fold of each other in “EC50 (nM), plaque reduction, hMPV B1 on Vero cells” value: 6.6 nM for the first, 6.18 nM for the second.

First: B3
Second: B6
The “EC50 (nM), plaque reduction, hMPV B1 on Vero cells” value of the first is 2.9-fold lower: 4.5 nM for the first, 13.1 nM for the second.

First: B7
Second: B8
The “EC50 (nM), plaque reduction, hMPV B1 on Vero cells” value of the first is 7.7-fold lower: 4.92 nM for the first, 38.1 nM for the second.

Going from B9 to B10, the “EC50 (nM), plaque reduction, hMPV B1 on Vero cells” value falls from 10.5 nM to 5.36 nM (2-fold).

B11 and B12 are within 1.5-fold of each other in “EC50 (nM), plaque reduction, hMPV B1 on Vero cells” value: 4.27 nM for the first, 3.61 nM for the second.

First: B13
Second: B14
The “EC50 (nM), plaque reduction, hMPV B1 on Vero cells” value of the first is 1.6-fold higher: 5.95 nM for the first, 3.82 nM for the second.

First: B15
Second: B16
The “EC50 (nM), plaque reduction, hMPV B1 on Vero cells” value of the first is 6.3-fold higher: 18 nM for the first, 2.85 nM for the second.

These binders were tested against F protein of hPIV Type 3 (hPIV3 C243) (human Parainfluenza Virus type 3 (hPIV3 …)) (assay: cell-based or functional assay).

B1 and B2 are within 1.5-fold of each other in “EC50 (nM), plaque reduction, hPIV3 C243 on LLC-MK2 cells” value (“EC50 (nM), plaque reduction, hPIV3 C243” for short): 27.9 nM for the first, 35.6 nM for the second.

Going from B3 to B4, the “EC50 (nM), plaque reduction, hPIV3 C243” value falls from 59 nM to 20.7 nM (2.9-fold).

B5 and B6 are within 1.5-fold of each other in “EC50 (nM), plaque reduction, hPIV3 C243” value: 50.5 nM for the first, 36.3 nM for the second.

B7 and B8 are within 1.5-fold of each other in “EC50 (nM), plaque reduction, hPIV3 C243” value: 21.3 nM for the first, 29.4 nM for the second.

B9 and B10 are within 1.5-fold of each other in “EC50 (nM), plaque reduction, hPIV3 C243” value: 27.2 nM for the first, 31.4 nM for the second.

B11 and B12 are within 1.5-fold of each other in “EC50 (nM), plaque reduction, hPIV3 C243” value: 59.5 nM for the first, 52.6 nM for the second.

First: B13
Second: B14
The “EC50 (nM), plaque reduction, hPIV3 C243” value of the first is 1.9-fold higher: 34.8 nM for the first, 18.8 nM for the second.

Compared with B15, B16 is 48-fold lower in “EC50 (nM), plaque reduction, hPIV3 C243” value: 65.4 nM for the first, 1.35 nM for the second.

Each binder was assayed against F protein of RSV A long virus strain (Respiratory Syncytial Virus (RSV) A …, UniProt P12568 26-574) (assay: cell-based or functional assay).
Chain of F protein of RSV A long virus strain (P12568 26-574): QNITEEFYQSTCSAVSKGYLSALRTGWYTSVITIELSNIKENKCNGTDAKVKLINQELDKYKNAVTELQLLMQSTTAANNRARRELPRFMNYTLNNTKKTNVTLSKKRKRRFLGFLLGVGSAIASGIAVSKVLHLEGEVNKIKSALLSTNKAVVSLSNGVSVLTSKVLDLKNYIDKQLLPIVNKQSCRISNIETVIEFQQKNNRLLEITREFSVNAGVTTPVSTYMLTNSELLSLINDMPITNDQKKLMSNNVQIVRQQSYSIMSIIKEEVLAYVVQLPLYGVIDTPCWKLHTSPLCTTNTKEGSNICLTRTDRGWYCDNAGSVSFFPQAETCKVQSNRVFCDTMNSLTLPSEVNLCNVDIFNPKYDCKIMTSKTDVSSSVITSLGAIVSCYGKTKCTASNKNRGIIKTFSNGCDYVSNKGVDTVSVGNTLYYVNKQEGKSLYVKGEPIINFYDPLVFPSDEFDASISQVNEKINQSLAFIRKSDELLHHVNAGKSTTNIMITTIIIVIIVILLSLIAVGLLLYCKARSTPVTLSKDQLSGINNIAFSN

B1 and B2 are within 1.5-fold of each other in “IC50/nM, plaque reduction, RSV A long on HEp-2 cells (Table 2, Cell fusion inhibition activity)” value: 12.4 nM for the first, 13 nM for the second.

B3 and B4 are within 1.5-fold of each other in “IC50/nM, plaque reduction, RSV A long on HEp-2 cells (Table 2, Cell fusion inhibition activity)” value: 10.3 nM for the first, 10.4 nM for the second.

Going from B5 to B17, the “IC50/nM, plaque reduction, RSV A long on HEp-2 cells (Table 2, Cell fusion inhibition activity)” value rises from 19.2 nM to 95.7 nM (5-fold).

B6 and B7 are within 1.5-fold of each other in “IC50/nM, plaque reduction, RSV A long on HEp-2 cells (Table 2, Cell fusion inhibition activity)” value: 12.2 nM for the first, 14.6 nM for the second.

B18 and B19 cannot be ordered by “IC50/nM, plaque reduction, RSV A long on HEp-2 cells (Table 2, Cell fusion inhibition activity)” value: greater than 8000 nM for the first, greater than 8000 nM for the second.

B8 and B9 are within 1.5-fold of each other in “IC50/nM, plaque reduction, RSV A long on HEp-2 cells (Table 2, Cell fusion inhibition activity)” value: 28.7 nM for the first, 25.7 nM for the second.

Going from B10 to B11, the “IC50/nM, plaque reduction, RSV A long on HEp-2 cells (Table 2, Cell fusion inhibition activity)” value rises from 9.9 nM to 19.8 nM (2-fold).

Going from B20 to B12, the “IC50/nM, plaque reduction, RSV A long on HEp-2 cells (Table 2, Cell fusion inhibition activity)” value falls from 3770 nM to 17.6 nM (210-fold).

Going from B13 to B14, the “IC50/nM, plaque reduction, RSV A long on HEp-2 cells (Table 2, Cell fusion inhibition activity)” value falls from 15.1 nM to 9.9 nM (1.5-fold).

B15 and B16 are within 1.5-fold of each other in “IC50/nM, plaque reduction, RSV A long on HEp-2 cells (Table 2, Cell fusion inhibition activity)” value: 11.3 nM for the first, 12.8 nM for the second.
